Laboratory results reported in patent US20220372138A1 (IOMX THERAPEUTICS, published 2022).
Positions count from the first letter of the chain named.

T1: ECD of murine IGSF11, recombinant biotinylated (mouse, UniProt P0C673 23-240)
T1 construct: whole entry named; also called Mouse IGSF11
T1 sequence: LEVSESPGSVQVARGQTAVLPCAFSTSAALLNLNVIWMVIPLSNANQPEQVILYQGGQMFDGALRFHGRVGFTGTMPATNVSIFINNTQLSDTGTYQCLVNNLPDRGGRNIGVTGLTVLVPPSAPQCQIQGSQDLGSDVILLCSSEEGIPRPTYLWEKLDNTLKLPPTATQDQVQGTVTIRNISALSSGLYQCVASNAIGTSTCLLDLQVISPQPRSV

T2: extracellular domain (ECD) of human IGSF11 (VSIG3), recombinant (human, UniProt Q5DX21 23-241)
T2 construct: biotinylated where captured on streptavidin; tags of the reagent not always stated; also called IGSF11 (ECD domain); ECD-IGSF11
T2 sequence: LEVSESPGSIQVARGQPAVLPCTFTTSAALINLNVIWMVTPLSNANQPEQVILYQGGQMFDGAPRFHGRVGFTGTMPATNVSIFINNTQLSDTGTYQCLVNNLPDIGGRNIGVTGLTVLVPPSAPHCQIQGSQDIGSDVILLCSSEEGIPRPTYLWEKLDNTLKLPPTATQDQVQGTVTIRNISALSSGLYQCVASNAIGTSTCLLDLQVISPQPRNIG

B1: C-008 (Fab format) (Fab, V domains shown)
VH: EVQLLESGGGLVQPGGSLRLSCAASGFTFSSYAMSWVRQAPGKGLEWVSAISGSGGSTYYADSVKGRFTISRDNSKNTLYLQMNSLRAEDTAVYYCTTDNGHNRDWGQGTLVTVSS
VL: ASVLTQPPSVSAAPGQKVTISCSGSSSNIGNNYVSWYQQLPGTAPKLLIYDNNKRPSGIPDRFSGSKSGTSATLGITGLQAEDEADYYCGTWTRSSGVFGGGTKLTVL
notes: Fab from E. coli lysate
B2: C-007 (Fab format) (Fab, V domains shown)
VH: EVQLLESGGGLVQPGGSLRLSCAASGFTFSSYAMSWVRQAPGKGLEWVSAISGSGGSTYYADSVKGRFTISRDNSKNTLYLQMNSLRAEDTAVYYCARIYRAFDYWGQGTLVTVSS
VL: ASVLTQPPSVSAAPGQKVTISCSGSSSNIGNNYVSWYQQLPGTAPKLLIYDNNKRPSGIPDRFSGSKSGTSATLGITGLQAEDEADYYCQLYEEEHSTWVFGGGTKLTVL
notes: Fab from E. coli lysate
B3: C-026 (Fab format) (Fab, V domains shown)
VH: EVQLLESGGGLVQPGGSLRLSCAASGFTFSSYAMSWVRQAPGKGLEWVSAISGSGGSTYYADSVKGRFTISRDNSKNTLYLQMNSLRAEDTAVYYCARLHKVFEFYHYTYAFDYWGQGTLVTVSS
VL: B2 VL with Q90A, L91S, E93S, E94S, H96T, T98G
notes: Fab from E. coli lysate
B4: C-001 (Fab format) (Fab, V domains shown)
VH: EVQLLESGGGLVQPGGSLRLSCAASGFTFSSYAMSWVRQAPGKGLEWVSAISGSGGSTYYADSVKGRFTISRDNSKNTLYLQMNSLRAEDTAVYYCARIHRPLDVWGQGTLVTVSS
VL: B2 VL with Q90G, L91S, Y92W, E93L, H96R, T98Q, W99Y
notes: Fab from E. coli lysate
B5: C-005 (Fab format) (Fab, V domains shown)
VH: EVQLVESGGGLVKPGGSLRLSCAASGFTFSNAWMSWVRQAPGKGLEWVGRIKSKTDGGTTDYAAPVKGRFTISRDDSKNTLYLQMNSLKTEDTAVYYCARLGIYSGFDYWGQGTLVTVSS
VL: SYELTQPPSVSVSPGQTASITCSGDKLGDKYASWYQQKPGQSPVLVIYQDSKRPSGIPERFSGSNSGNTATLTISGTQAEDEADYYCHSYTGKPSQVVFGGGTKLTVL
notes: Fab from E. coli lysate
B6: C-009 (Fab format) (Fab, V domains shown)
VH: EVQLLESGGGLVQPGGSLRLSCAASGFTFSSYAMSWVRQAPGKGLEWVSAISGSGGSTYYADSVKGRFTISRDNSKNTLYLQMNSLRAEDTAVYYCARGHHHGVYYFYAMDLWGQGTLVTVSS
VL: B5 VL with H88Q, T91S, K93S, P94S, S95T, Q96L, V97H
notes: Fab from E. coli lysate
B7: C-022 (Fab format) (Fab, V domains shown)
VH: EVQLLESGGGLVQPGGSLRLSCAASGFTFSSYAMSWVRQAPGKGLEWVSAISGSGGSTYYADSVKGRFTISRDNSKNTLYLQMNSLRAEDTAAYYCARMAAGASWGTFDYWSQGTLVTVSS
VL: DIQMTQSPSSLSASVGDRVTITCRASQSISSYLNWYQQKPGKAPKLLIYAASSLQSGVPSRFSGSGSGTDFTLTISSLQPEDFATYYCQQRSGSPLTFGQGTKVEIK
notes: Fab from E. coli lysate
B8: A-009 (scFv format) (scFv, V domains shown)
VH: QVQLVQSGAEVKKPGSSVKVSCKASGGTFSSYAISWVRQAPGQGLEWMGGIIPIFGTANYAQKFQGRVTITADESTSTAYMELSSLRSEDTAVYYCARGRGFGELYFDYWGQGTLVTVSS
VL: ETTLTQSPATLSVSPGERATLSCRASQGVRSNIAWYQQKPGQAPRLLIYDSSTRATGIPARFSGSGSGTEFTLTISSLQSEDFAVYSCQQYKNWPRTFGQGTKVEIK
notes: scFv
B9: A-005 (scFv format) (scFv, V domains shown)
VH: EVQLVESGGGLIQPGGSLRLSCAASGFTVSSNYMSWVRQAPGKGLEWVSVIYSGGSTYYADSVKGRFTISRDNSKNTLYLQMNSLRAEDTAVYYCARGNPYYYGDLQVNFDYWGQGTLVTVSS
VL: QAVVTQEPSLTVSPGETVTLTCASSTGAVTSGYYPNWFQQRPGQAPRALIYSTSNKDSWTPARFSGSLLGGKAALTLSGVQPEDEAEYYCLLYYGGAWVFGGGTKLTVL
notes: scFv
B10: A-002 (scFv format) (scFv, V domains shown)
VH: B9 VH
VL: B9 VL with E16G, L20P, A23G, Y33N, Y34L, R41K, D57H, F64I
notes: scFv

Each binder was assayed against Streptavidin (UniProt P22629 37-163, limits assumed) (assay: Fab ELISA).
Sequence of Streptavidin (P22629 37-163 limits assumed): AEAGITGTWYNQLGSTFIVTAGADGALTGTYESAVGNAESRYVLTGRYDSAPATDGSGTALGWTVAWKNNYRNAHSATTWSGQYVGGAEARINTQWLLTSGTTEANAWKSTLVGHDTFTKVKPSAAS
For B1, the A450 was < 0.1.
With B2 the A450 was < 0.1.
B3 was tested, and the A450 was < 0.1.
For B4, the A450 was < 0.1.
With B5 the A450 was < 0.1.
In the case of B6, the A450 is reported as < 0.1.
With B7 the A450 was < 0.1.

These binders were tested against T1, ECD of murine IGSF11, recombinant … (assay: ELISA RFU 0.1-0.5).
For B8, the “ELISA binding signal (RFU)” value was 0.1 to 0.5 rfu.
For B9, the “ELISA binding signal (RFU)” value was 0.1 to 0.5 rfu.
With B10 the “ELISA binding signal (RFU)” value was 0.1 to 0.5 rfu.

Each binder was assayed against T2, extracellular domain (ECD) of human … (assay: ELISA RFU 0.5-1.0).
With B8 the “ELISA binding signal (RFU)” value was 0.5 to 1 rfu.
For B9, the “ELISA binding signal (RFU)” value was 0.5 to 1 rfu.
In the case of B10, the “ELISA binding signal (RFU)” value is reported as 0.5 to 1 rfu.
